Data: patent US7696168 (TUFTS MEDICAL CENTER, dated 2010)
Numbering of substitutions follows the chain as printed. The star is where a group is joined. Palmitoyl = CCCCCCCCCCCCCCCC(=O)*

Key:
[1] = target: PAR1 delta377 mutant (UniProt P25116)
[2] = target: T1, human PAR2 (human, UniProt P55085 37-397); experiment: cell-based or functional assay
T1 sequence (looked up): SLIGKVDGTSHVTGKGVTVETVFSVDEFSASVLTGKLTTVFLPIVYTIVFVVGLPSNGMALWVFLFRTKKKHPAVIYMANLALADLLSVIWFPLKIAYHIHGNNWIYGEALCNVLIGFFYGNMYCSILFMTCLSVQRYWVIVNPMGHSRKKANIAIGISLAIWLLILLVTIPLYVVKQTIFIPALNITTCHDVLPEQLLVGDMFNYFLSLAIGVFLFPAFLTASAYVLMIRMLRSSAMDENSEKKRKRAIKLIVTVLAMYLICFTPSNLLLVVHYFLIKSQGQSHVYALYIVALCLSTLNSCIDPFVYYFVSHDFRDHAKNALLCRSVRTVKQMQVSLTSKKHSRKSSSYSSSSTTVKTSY

[3] = target: human glucagon-like peptide-1 receptor (GLP-1R) (human, UniProt P43220 24-463); experiment: cell-based or functional assay
[4] = target: T2, human PAR4 (human, UniProt Q96RI0 48-385); experiment: cell-based or functional assay
T2 sequence (looked up): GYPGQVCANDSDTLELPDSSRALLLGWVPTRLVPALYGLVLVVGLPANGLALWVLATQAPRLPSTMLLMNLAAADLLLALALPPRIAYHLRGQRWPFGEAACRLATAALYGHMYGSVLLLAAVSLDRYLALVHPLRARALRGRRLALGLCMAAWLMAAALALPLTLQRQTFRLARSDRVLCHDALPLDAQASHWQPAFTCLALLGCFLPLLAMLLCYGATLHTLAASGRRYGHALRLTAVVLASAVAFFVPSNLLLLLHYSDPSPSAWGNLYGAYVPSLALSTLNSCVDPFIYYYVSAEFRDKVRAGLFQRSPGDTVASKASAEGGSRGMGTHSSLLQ

[5] = target: T2, human PAR4; experiment: cell-based or functional assay; remark: listed apart in the source
[6] = target: T3, human PAR1 (human, UniProt P25116 42-425); experiment: cell-based or functional assay
T3 sequence (looked up): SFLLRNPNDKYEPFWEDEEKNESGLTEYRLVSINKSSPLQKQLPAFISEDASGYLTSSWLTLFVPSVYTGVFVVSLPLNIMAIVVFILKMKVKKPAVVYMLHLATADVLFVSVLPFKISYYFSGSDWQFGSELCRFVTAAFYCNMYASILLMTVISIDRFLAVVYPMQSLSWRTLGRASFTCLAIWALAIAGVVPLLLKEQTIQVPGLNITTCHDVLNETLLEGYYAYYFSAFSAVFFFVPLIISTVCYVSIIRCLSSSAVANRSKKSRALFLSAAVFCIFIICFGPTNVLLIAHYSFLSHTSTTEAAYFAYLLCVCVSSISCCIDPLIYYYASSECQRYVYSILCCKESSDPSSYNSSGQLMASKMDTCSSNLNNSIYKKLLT

[7] = target: T3, human PAR1; experiment: cell-based or functional assay; remark: listed apart in the source
[8] = target: T4, human cholecystokinin B receptor (CCKB) (human, UniProt P32239 1-447); experiment: cell-based or functional assay
T4 sequence (looked up): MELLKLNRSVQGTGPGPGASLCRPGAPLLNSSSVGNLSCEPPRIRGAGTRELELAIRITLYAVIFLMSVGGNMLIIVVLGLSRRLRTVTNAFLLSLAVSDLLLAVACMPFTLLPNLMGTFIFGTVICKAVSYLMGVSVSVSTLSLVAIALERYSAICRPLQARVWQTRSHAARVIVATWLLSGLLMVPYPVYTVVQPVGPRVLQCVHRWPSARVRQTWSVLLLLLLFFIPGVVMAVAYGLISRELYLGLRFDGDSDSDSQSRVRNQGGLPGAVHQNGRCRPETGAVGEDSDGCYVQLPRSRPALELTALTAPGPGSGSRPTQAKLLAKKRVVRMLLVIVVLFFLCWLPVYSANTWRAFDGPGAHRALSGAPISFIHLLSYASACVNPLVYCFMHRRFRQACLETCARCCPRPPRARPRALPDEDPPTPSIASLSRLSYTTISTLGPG

[9] = target: T4, human cholecystokinin B receptor (CCKB); experiment: cell-based or functional assay; remark: listed apart in the source
[10] = target: T5, murine PAR4 (mouse, UniProt O88634 60-396); experiment: cell-based or functional assay
T5 sequence (looked up): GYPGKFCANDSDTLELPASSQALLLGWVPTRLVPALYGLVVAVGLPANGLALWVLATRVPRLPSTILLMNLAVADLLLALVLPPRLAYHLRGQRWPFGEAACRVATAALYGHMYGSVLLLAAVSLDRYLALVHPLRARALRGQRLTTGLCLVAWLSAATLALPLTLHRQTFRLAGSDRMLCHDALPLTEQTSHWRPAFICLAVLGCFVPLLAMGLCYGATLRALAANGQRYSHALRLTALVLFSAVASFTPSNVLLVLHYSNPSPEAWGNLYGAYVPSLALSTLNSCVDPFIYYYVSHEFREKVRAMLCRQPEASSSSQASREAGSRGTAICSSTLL

[11] = target: T6, PAR1 S309P mutant (human, UniProt P25116 42-425); experiment: cell-based or functional assay
T6 sequence (looked up): T3 sequence (looked up) with S268P

thrombin
reduction of efficacy against wild type PAR1 (PLC-beta, InsP) [1]: Efficacy is reduced by 2-3 fold for the two PAR1 agonists

SLIGKV
InsP formation, fold-stimulation by 100 micromolar SLIGKV (P2pal-21 experiment) [2]: 3.1 fold

B1: G1pal-15 pepducin (peptide)
peptide: Palmitoyl-ANLMSKTDIKCRLAF-NH2
SMILES: CCCCCCCCCCCCCCCC(=O)N[C@@H](C)C(=O)N[C@@H](CC(N)=O)C(=O)N[C@@H](CC(C)C)C(=O)N[C@@H](CCSC)C(=O)N[C@@H](CO)C(=O)N[C@@H](CCCCN)C(=O)N[C@H](C(=O)N[C@@H](CC(=O)O)C(=O)N[C@H](C(=O)N[C@@H](CCCCN)C(=O)N[C@@H](CS)C(=O)N[C@@H](CCCNC(=N)N)C(=O)N[C@@H](CC(C)C)C(=O)N[C@@H](C)C(=O)N[C@@H](Cc1ccccc1)C(N)=O)[C@@H](C)CC)[C@@H](C)O
cAMP in Cos7 fibroblasts, fold activation at 1 µM pepducin [3]: 1.7 fold

B2: P4pal-15 (Pal-HTLAASGRRYGHALR) (peptide)
peptide: Palmitoyl-HTLAASGRRYGHALR-NH2
SMILES: CCCCCCCCCCCCCCCC(=O)N[C@@H](Cc1c[nH]cn1)C(=O)N[C@H](C(=O)N[C@@H](CC(C)C)C(=O)N[C@@H](C)C(=O)N[C@@H](C)C(=O)N[C@@H](CO)C(=O)NCC(=O)N[C@@H](CCCNC(=N)N)C(=O)N[C@@H](CCCNC(=N)N)C(=O)N[C@@H](Cc1ccc(O)cc1)C(=O)NCC(=O)N[C@@H](Cc1c[nH]cn1)C(=O)N[C@@H](C)C(=O)N[C@@H](CC(C)C)C(=O)N[C@@H](CCCNC(=N)N)C(N)=O)[C@@H](C)O
IC50, inhibition of platelet aggregation to 200 micromolar AYPGKF [4]: 600 nM
Antagonist IC50 (InsP formation, against 10 nM thrombin) [5]: 3000 nM

B3: P1pal-19Q (Pal-RCLSSSAVANQSQQSQALF) (peptide)
peptide: Palmitoyl-RCLSSSAVANQSQQSQALF-NH2
SMILES: CCCCCCCCCCCCCCCC(=O)N[C@@H](CCCNC(=N)N)C(=O)N[C@@H](CS)C(=O)N[C@@H](CC(C)C)C(=O)N[C@@H](CO)C(=O)N[C@@H](CO)C(=O)N[C@@H](CO)C(=O)N[C@@H](C)C(=O)N[C@H](C(=O)N[C@@H](C)C(=O)N[C@@H](CC(N)=O)C(=O)N[C@@H](CCC(N)=O)C(=O)N[C@@H](CO)C(=O)N[C@@H](CCC(N)=O)C(=O)N[C@@H](CCC(N)=O)C(=O)N[C@@H](CO)C(=O)N[C@@H](CCC(N)=O)C(=O)N[C@@H](C)C(=O)N[C@@H](CC(C)C)C(=O)N[C@@H](Cc1ccccc1)C(N)=O)C(C)C
loss in efficacy, platelet aggregation or InsP in PAR1-Rat1 cells [6]: 2 fold
Agonist EC50 (activating phase, InsP formation) [7]: 650 nM
Agonist Efficacy (% of full response to extracellular agonist) [7]: 46%
Agonist IC50 (inhibitory phase, InsP formation) [7]: 30000 nM

B4: Bpal-18F (Pal-SGSRPTQAKLLAKKRVVF) (peptide)
peptide: Palmitoyl-SGSRPTQAKLLAKKRVVF-NH2
SMILES: CCCCCCCCCCCCCCCC(=O)N[C@@H](CO)C(=O)NCC(=O)N[C@@H](CO)C(=O)N[C@@H](CCCNC(=N)N)C(=O)N1CCC[C@H]1C(=O)N[C@H](C(=O)N[C@@H](CCC(N)=O)C(=O)N[C@@H](C)C(=O)N[C@@H](CCCCN)C(=O)N[C@@H](CC(C)C)C(=O)N[C@@H](CC(C)C)C(=O)N[C@@H](C)C(=O)N[C@@H](CCCCN)C(=O)N[C@@H](CCCCN)C(=O)N[C@@H](CCCNC(=N)N)C(=O)N[C@H](C(=O)N[C@H](C(=O)N[C@@H](Cc1ccccc1)C(N)=O)C(C)C)C(C)C)[C@@H](C)O
improvement of potency against the wild-type CCKB peptide [8]: 15 fold
Agonist EC50 (activating phase, InsP formation) [9]: 100 nM
Agonist Efficacy (% of full response to 300 nM CCK-8) [9]: 13%
Agonist IC50 (inhibitory phase, InsP formation) [9]: 1000 nM

B5: P4pal-15F (Pal-HTLAASGRRYGHALF) (peptide)
peptide: Palmitoyl-HTLAASGRRYGHALF-NH2
SMILES: CCCCCCCCCCCCCCCC(=O)N[C@@H](Cc1c[nH]cn1)C(=O)N[C@H](C(=O)N[C@@H](CC(C)C)C(=O)N[C@@H](C)C(=O)N[C@@H](C)C(=O)N[C@@H](CO)C(=O)NCC(=O)N[C@@H](CCCNC(=N)N)C(=O)N[C@@H](CCCNC(=N)N)C(=O)N[C@@H](Cc1ccc(O)cc1)C(=O)NCC(=O)N[C@@H](Cc1c[nH]cn1)C(=O)N[C@@H](C)C(=O)N[C@@H](CC(C)C)C(=O)N[C@@H](Cc1ccccc1)C(N)=O)[C@@H](C)O
Antagonist IC50 (InsP formation, against 10 nM thrombin) [5]: > 2000 nM

B6: P4pal-10 (Pal-SGRRYGHALR) (peptide)
peptide: Palmitoyl-SGRRYGHALR-NH2
SMILES: CCCCCCCCCCCCCCCC(=O)N[C@@H](CO)C(=O)NCC(=O)N[C@@H](CCCNC(=N)N)C(=O)N[C@@H](CCCNC(=N)N)C(=O)N[C@@H](Cc1ccc(O)cc1)C(=O)NCC(=O)N[C@@H](Cc1c[nH]cn1)C(=O)N[C@@H](C)C(=O)N[C@@H](CC(C)C)C(=O)N[C@@H](CCCNC(=N)N)C(N)=O
IC50, inhibition of platelet aggregation to AYPGKF [4]: 500 to 1000 nM
inhibition of the rate of murine platelet aggregation to 3 nM thrombin, 3 µM pepducin [10]: 7 fold

B7: P1pal-19 (Pal-RCLSSSAVANRSKKSRALF) (peptide)
peptide: Palmitoyl-RCLSSSAVANRSKKSRALF-NH2
SMILES: CCCCCCCCCCCCCCCC(=O)N[C@@H](CCCNC(=N)N)C(=O)N[C@@H](CS)C(=O)N[C@@H](CC(C)C)C(=O)N[C@@H](CO)C(=O)N[C@@H](CO)C(=O)N[C@@H](CO)C(=O)N[C@@H](C)C(=O)N[C@H](C(=O)N[C@@H](C)C(=O)N[C@@H](CC(N)=O)C(=O)N[C@@H](CCCNC(=N)N)C(=O)N[C@@H](CO)C(=O)N[C@@H](CCCCN)C(=O)N[C@@H](CCCCN)C(=O)N[C@@H](CO)C(=O)N[C@@H](CCCNC(=N)N)C(=O)N[C@@H](C)C(=O)N[C@@H](CC(C)C)C(=O)N[C@@H](Cc1ccccc1)C(N)=O)C(C)C
platelet aggregation EC50 [6]: 8000 nM
loss in efficacy against wild type PAR1 (InsP) [11]: 4.3 fold
loss in potency against wild type PAR1 (InsP) [11]: 13 fold
Agonist EC50 (activating phase, InsP formation) [7]: 180 nM
Agonist Efficacy (% of full response to extracellular agonist) [7]: 90%
Agonist IC50 (inhibitory phase, InsP formation) [7]: 6500 nM
